Measured values from the supplement of paper PMC10724198.
± gives the standard deviation of the averaged measurements.

Legend:
Saccharomyces cerevisiae [1] = assay: protein stability index of tFT-peptide fusion (C-terminal peptide) (PSI (0-1 scale)); higher = more stable (slower turnover)
Method: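 MPS profiling in S. cerevisiae of the tFT-X12 degron library: putative degron peptides plus stable controls, 12 aa, fused to the C-terminus of a sfGFP-mCherry timer. Cells are FACS-sorted into 8 mCherry/sfGFP bins and deep-sequenced. PSI runs from 0 (unstable) to 1 (stable). Backgrounds are wild type, das1Δ and doa10Δ at 30 °C, and wild type, das1Δ, cdc34-1 and cdc53-1 at 37 °C; 2-3 technical replicates each.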

Saccharomyces cerevisiae [2] = assay: as above; conditions: genetic background: wild type; temperature: 30 C
[3] = genetic background: cdc34-1, temperature: 37 C
[4] = genetic background: cdc53-1, temperature: 37 C
[5] = genetic background: das1 deletion, temperature: 30 C
[6] = genetic background: das1 deletion, temperature: 37 C
[7] = genetic background: doa10 deletion, temperature: 30 C
[8] = genetic background: wild type, temperature: 30 C
[9] = genetic background: wild type, temperature: 37 C
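Also: PSI is a weighted mean of sequencing reads over stability bins, variants kept only with over 10 reads, mCherry proximal and sfGFP distal, peptide attached via GGGS linker.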

| Sequence | protein stability index (Saccharomyces cerevisiae [1]; [3]) | protein stability index (Saccharomyces cerevisiae [1]; [4]) | protein stability index (Saccharomyces cerevisiae [1]; [5]) | protein stability index (Saccharomyces cerevisiae [1]; [6]) | protein stability index (Saccharomyces cerevisiae [1]; [7]) | protein stability index (Saccharomyces cerevisiae [1]; [8]) | protein stability index (Saccharomyces cerevisiae [1]; [9]) | protein stability index (Saccharomyces cerevisiae [2]) |
| --- | --- | --- | --- | --- | --- | --- | --- | --- |
| LFFFVCYLATVK | 0.198 ± 0.0088 | 0.347 ± 0.11 | 0.23 ± 0.032 | 0.416 ± 0.017 | 0.166 ± 0.011 | 0.191 ± 0.02 | 0.326 ± 0.0072 | 0.276 ± 0.053 |
| LFGFYFVRCLVW | 0.113 ± 0.0026 | 0.168 ± 0.022 | 0.178 ± 0.022 | 0.263 ± 0.012 | 0.16 ± 0.017 | 0.159 ± 0.0095 | 0.23 ± 0.0099 | 0.226 ± 0.0096 |
| LFHFPSWIFCLL | 0.562 ± 0.02 | 0.612 ± 0.029 | 0.55 ± 0.036 | 0.688 ± 0.015 | 0.24361 ± 0.00024 | 0.251 ± 0.014 | 0.308 ± 0.016 | 0.331 ± 0.0049 |
| LFIRSFLFFSHF | 0.353 ± 0.0079 | 0.3482 ± 0.00057 | 0.498 ± 0.019 | 0.581 ± 0.016 | 0.248 ± 0.026 | 0.184 ± 0.025 | 0.307 ± 0.082 | 0.27 ± 0.0052 |
| LFLTSFRFLRLF | 0.337 ± 0.016 | 0.4813 ± 0.0027 | 0.509 ± 0.0094 | 0.597 ± 0.03 | 0.0803 ± 0.006 | 0.0691 ± 0.015 | 0.134 ± 0.03 | 0.162 ± 0.0047 |
| LFPLLCLLLPSL | 0.614 ± 0.091 | 0.664 ± 0.033 | 0.548 ± 0.025 | 0.638 ± 0.0096 | 0.521 ± 0.027 | 0.522 ± 0.02 | 0.628 ± 0.0063 | 0.538 ± 0.065 |
| LFTVCMIIQMVH | 0.0516 ± 0.003 | 0.185 ± 0.0029 | 0.145 ± 0.036 | 0.273 ± 0.02 | 0.0793 ± 0.0011 | 0.1 ± 0.055 | 0.173 ± 0.016 | 0.177 ± 0.017 |
| LFVGLVSFRIGA | 0.563 ± 0.039 | 0.573 ± 0.014 | 0.428 ± 0.029 | 0.601 ± 0.0068 | 0.399 ± 0.018 | 0.419 ± 0.021 | 0.575 ± 0.0069 | 0.477 ± 0.029 |
| LGCRFCFVGVVG | 0.589 ± 0.011 | 0.632 ± 0.052 | 0.429 ± 0.021 | 0.634 ± 0.026 | 0.395 ± 0.01 | 0.439 ± 0.029 | 0.574 ± 0.022 | 0.494 ± 0.033 |
| LGPLGWLVLLLV | 0.415 ± 0.012 | 0.425 ± 0.014 | 0.353 ± 0.022 | 0.483 ± 0.0058 | 0.23 ± 0.015 | 0.22 ± 0.021 | 0.354 ± 0.0068 | 0.292 ± 0.035 |
| LGWFVDFVFVVW | 0.289 ± 0.0096 | 0.426 ± 0.037 | 0.27 ± 0.03 | 0.458 ± 0.012 | 0.244 ± 0.0045 | 0.274 ± 0.025 | 0.454 ± 0.0019 | 0.4693 ± 0.0045 |
| LHASCVYTILLV | 0.427 ± 0.035 | 0.4584 ± 0.0012 | 0.351 ± 0.03 | 0.499 ± 0.0092 | 0.323 ± 0.019 | 0.304 ± 0.019 | 0.451 ± 0.0082 | 0.389 ± 0.0049 |
| LIARYTFLFCLC | 0.553 ± 0.042 | 0.611 ± 0.015 | 0.531 ± 0.015 | 0.628 ± 0.021 | 0.3501 ± 0.0008 | 0.354 ± 0.024 | 0.488 ± 0.025 | 0.444 ± 0.031 |
| LLCGVLFFFWVV | 0.38 ± 0.018 | 0.496 ± 0.011 | 0.383 ± 0.03 | 0.525 ± 0.017 | 0.311 ± 0.0096 | 0.32 ± 0.021 | 0.451 ± 0.0076 | 0.42 ± 0.068 |
| LLFSVLLLGVGF | 0.425 ± 0.033 | 0.4723 ± 0.001 | 0.334 ± 0.023 | 0.5038 ± 0.0037 | 0.329 ± 0.024 | 0.324 ± 0.036 | 0.475 ± 0.0074 | 0.407 ± 0.035 |
| LLGSRFVLIRSL | 0.488 ± 0.028 | 0.571 ± 0.044 | 0.462 ± 0.026 | 0.621 ± 0.012 | 0.114 ± 0.014 | 0.121 ± 0.01 | 0.161 ± 0.009 | 0.185 ± 0.017 |
| LLLRSSRLRVLS | 0.543 ± 0.064 | 0.619 ± 0.03 | 0.607 ± 0.013 | 0.6521 ± 0.005 | 0.0852 ± 0.0037 | 0.0918 ± 0.02 | 0.149 ± 0.021 | 0.176 ± 0.065 |
| LLLRWWLYSCCP | 0.411 ± 0.027 | 0.495 ± 0.012 | 0.324 ± 0.032 | 0.4667 ± 0.0026 | 0.319 ± 0.016 | 0.328 ± 0.017 | 0.478 ± 0.012 | 0.42 ± 0.034 |
| LLPFSLLDLLLC | 0.658 ± 0.028 | 0.707 ± 0.021 | 0.58 ± 0.028 | 0.681 ± 0.016 | 0.361 ± 0.029 | 0.404 ± 0.017 | 0.607 ± 0.0088 | 0.488 ± 0.066 |
| LLQCRTGLASGR | 0.685 ± 0.032 | 0.732 ± 0.043 | 0.649 ± 0.013 | 0.748 ± 0.0087 | 0.652 ± 0.029 | 0.656 ± 0.043 | 0.718 ± 0.043 | 0.518 ± 0.13 |

| Sequence | protein stability index (Saccharomyces cerevisiae [1]; [3]) | protein stability index (Saccharomyces cerevisiae [1]; [4]) | protein stability index (Saccharomyces cerevisiae [1]; [5]) | protein stability index (Saccharomyces cerevisiae [1]; [6]) | protein stability index (Saccharomyces cerevisiae [1]; [7]) | protein stability index (Saccharomyces cerevisiae [1]; [8]) | protein stability index (Saccharomyces cerevisiae [1]; [9]) | protein stability index (Saccharomyces cerevisiae [2]) |
| --- | --- | --- | --- | --- | --- | --- | --- | --- |
| LLSGLVFVFVLG | 0.293 ± 0.01 | 0.405 ± 0.026 | 0.238 ± 0.04 | 0.445 ± 0.0072 | 0.204 ± 0.0027 | 0.236 ± 0.028 | 0.425 ± 0.014 | 0.318 ± 0.02 |
| LLSILSSLPLSR | 0.579 ± 0.04 | 0.6106 ± 0.0022 | 0.585 ± 0.043 | 0.7073 ± 0.0042 | 0.654 ± 0.033 | 0.589 ± 0.024 | 0.656 ± 0.029 | 0.576 ± 0.12 |
| LLVFSLLRPFLF | 0.615 ± 0.072 | 0.643 ± 0.018 | 0.567 ± 0.039 | 0.6602 ± 0.0048 | 0.414 ± 0.028 | 0.417 ± 0.023 | 0.5623 ± 0.003 | 0.501 ± 0.016 |
| LLVLRQYFFFFV | 0.462 ± 0.026 | 0.531 ± 0.013 | 0.468 ± 0.035 | 0.606 ± 0.017 | 0.238 ± 0.012 | 0.224 ± 0.022 | 0.401 ± 0.011 | 0.295 ± 0.027 |
| LPCPPSPASLPR | 0.676 ± 0.0092 | 0.7154 ± 0.0027 | 0.447 ± 0.013 | 0.634 ± 0.0069 | 0.437 ± 0.013 | 0.448 ± 0.0041 | 0.59 ± 0.019 | 0.498 ± 0.0076 |
| LPHIFFCLFSLL | 0.582 ± 0.045 | 0.611 ± 0.047 | 0.562 ± 0.05 | 0.657 ± 0.066 | 0.203 ± 0.01 | 0.215 ± 0.024 | 0.317 ± 0.015 | 0.289 ± 0.026 |
| LPPFRFSLPFRR | 0.692 ± 0.044 | 0.7531 ± 0.0018 | 0.671 ± 0.013 | 0.705 ± 0.023 | 0.64 ± 0.024 | 0.658 ± 0.019 | 0.71 ± 0.036 | 0.712 ± 0.019 |
| LPWLLLISFSYR | 0.149 ± 0.017 | 0.25 ± 0.037 | 0.202 ± 0.029 | 0.38 ± 0.0051 | 0.171 ± 0.0091 | 0.188 ± 0.029 | 0.378 ± 0.061 | 0.286 |
| LQSYIFSVRGIS | 0.707 ± 0.02 | 0.697 ± 0.018 | 0.601 ± 0.029 | 0.707 ± 0.029 | 0.418 ± 0.054 | 0.45 ± 0.046 | 0.638 ± 0.0012 | 0.533 ± 0.078 |
| LRMMLLVTIILE | 0.0571 ± 0.0011 | 0.115 ± 0.0084 | 0.107 ± 0.028 | 0.216 ± 0.0072 | 0.0875 ± 0.023 | 0.0921 ± 0.025 | 0.198 ± 0.026 | 0.188 ± 0.037 |
| LRVGVRSWGGKW | 0.4323 ± 0.0013 | 0.5125 ± 0.0013 | 0.4299 ± 0.0014 | 0.4369 ± 0.002 | 0.439 ± 0.013 | 0.4346 ± 0.0031 | 0.439 ± 0.014 | 0.433 ± 0.0069 |
| LSFYLRAVRASL | 0.777 ± 0.092 | 0.782 ± 0.009 | 0.629 ± 0.015 | 0.7101 ± 0.0032 | 0.562 ± 0.037 | 0.565 ± 0.027 | 0.673 ± 0.015 | 0.522 ± 0.035 |
| LSLFPFLPSPCP | 0.736 ± 0.03 | 0.777 ± 0.0099 | 0.671 ± 0.009 | 0.752 ± 0.035 | 0.674 ± 0.036 | 0.669 ± 0.021 | 0.744 ± 0.018 | 0.748 ± 0.07 |
| LSRSAGVGVWVG | 0.65 ± 0.01 | 0.72 ± 0.019 | 0.647 ± 0.0099 | 0.731 ± 0.013 | 0.243 ± 0.018 | 0.283 ± 0.022 | 0.553 ± 0.026 | 0.391 ± 0.073 |
| LSTFFIFLRILR | 0.289 ± 0.028 | 0.218 ± 0.0087 | 0.324 ± 0.04 | 0.4436 ± 0.0022 | 0.517 ± 0.021 | 0.342 ± 0.028 | 0.436 ± 0.05 | 0.367 ± 0.028 |
| LVFLYFHFCCGF | 0.4768 ± 0.0043 | 0.4909 ± 0.0032 | 0.394 ± 0.026 | 0.543 ± 0.024 | 0.399 ± 0.017 | 0.386 ± 0.013 | 0.5313 ± 0.0006 | 0.485 ± 0.017 |
| LVFPPVPSLVLC | 0.261 ± 0.018 | 0.278 ± 0.0066 | 0.277 ± 0.036 | 0.376 ± 0.013 | 0.192 ± 0.0059 | 0.223 ± 0.029 | 0.3099 ± 0.0013 | 0.352 ± 0.0088 |
| LVFPRWACSLVF | 0.344 ± 0.0079 | 0.3661 ± 0.0021 | 0.307 ± 0.025 | 0.426 ± 0.0075 | 0.263 ± 0.0029 | 0.288 ± 0.037 | 0.406 ± 0.019 | 0.3762 ± 0.00049 |
| LVFRVSLVEVVL | 0.2142 ± 0.0015 | 0.299 ± 0.0071 | 0.232 ± 0.028 | 0.36 ± 0.01 | 0.196 ± 0.0062 | 0.214 ± 0.029 | 0.334 ± 0.014 | 0.32 ± 0.014 |
